Results as given in the DeepSol protein solubility set.

experiment: soluble on expression in E. coli; label from the status in PepcDB or PDB records

Row | Sequence | soluble on expression in E. coli
1 | MSQPIYKRILLKLSGEALQGEDGLGIDPAILDRMAVEIKELVEMGVEVSVVLGGGNLFRGAKLAKAGMNRVVGDHMGMLATVMNGLAMRDSLFRADVNAKLMSAFQLNGICDTYNWSEAIKMLREKRVVIFSAGTGNPFFTTDSTACLRGIEIEADVVLKATKVDGVYDCDPAKNPDAKLYKNLSYAEVIDKELKVMDLSAFTLARDHGMPIRVFNMGKPGALRQVVTGTEEGTTICLEHHHHHH | not soluble
2 | MSQPLTTNSVLVEEAAADGDSSAAAPPLFDYHRIDQKLLQNIVYDALVWSTLNCLLVGDKSVQRSGRVPGVGLVHLPLSLLPGPFPESHWKQGCELAPIFNELVDRVSLDGKFLQESLSRTKNADEFTSRLLDIHSKMLQINKKEDIRMGIVRSDYMIDEKTKSLLQIEMNTISTSFALIGCLMTGLHKSLLSQYGKFLGLNSNRVPANNAVDQSAEALAKAWSEYNNPRAAILVVVQVEERNMYEQHYISALLREKHHIRSIRKTLTEIDQEGKILPDGTLSVDGQAISVVYFRAGYTPKDYPSESEWRARLLMEQSSAIKCPTISYHLVGTKKIQQELAKPGVLERFVENKDHIAKLRACFAGLWSLEDSDIVKKAIENPELFVMKPQREGGGNNIYGDELRETLLKLQEAGSQEDAAYILMQRIFPATSPAILVRDGNWDTGHVISEAGIFGTYLRNKDKIIINNESGYMVRTKISSSYEGGVLPGFGVVDTVYLT | soluble
3 | MSQQGLERRLLAGLQGLGLTINQAQRAVKHFGADALDRLEKDLFTLTEVEGIGFLTADKLWQARGGALDDPRRLTAAAVYALQLAGTQAGHSFLPRSRAEKGVVHYTRVTPGQARLAVETAVELGRLSEDDSPLFAAEAAATGEGRIYLPHVLRAEKKLASLIRTLLATPPADGAGNDDWAVPKKARKGLSEEQASVLDQLAGHRLVVLTGGPGTGKSTTTKAVADLAESLGLEVGLCAPTGKAARRLGEVTGRTASTVHRLLGYGPQGFRHNHLEPAPYDLLIVDEVSMMGDALMLSLLAAVPPGARVLLVGDTDQLPPVDAGLPLLALAQAAPTIKLTQVYRQAAKNPIIQAAHGLLHGEAPAWGDKRLNLTEIEPDGGARRVALMVRELGGPGAVQVLTPMRKGPLGMDHLNYHLQALFNPGEGGVRIAEGEARPGDTVVQTKNDYNNEIFNGTLGMVLKAEGARLTVDFDGNVVELTGAELFNLQLGYALTVHRAQGSEWGTVLGVLHEAHMPMLSRNLVYTALTRARDRFFSAGSASAWQIAAARQREARNTALLERIRAHLEHHHHHH | soluble
4 | MSQQKICFIGAGNMTRSIISGLIRSGYPASQVQATNPSQGKLDALATDFGVRVSQDNVSAAQDADVIILSVKPQLMEQVCQALQGIDMSNKLLITIAAGIKASRYSEYLAQPITLIRTMPNTPMQIGVGMTGLYAPQSLSDAQKAIAERLMSSGGEIVWVNEESDINQVIALAGSSPAYFFLLMESMIDAGKQMGMDEAKARSLVQQAALGAAMMAKQNPELTLGNLRENVTSKGGTTAQAIATFEAADLRGVVKKAMENCINRAEEMAKTF | soluble
5 | MSQRTSEENRYEQLHRFAAKIHSTMQIDDVLEEIICTLQNVYPAFTYHLLLSHDNHVCGNLPIKTLALDESEGQPAALRAFLTGQVQCEETAAPPRSVLYAPIKGVQAVYGVIQIIAPYAAPFPKREINFISLLAGTAGRALENAKLYEQSRRLEHHHHHH | soluble
6 | MSQSNTLTVQILDKEYCINCPDDERANLESAARYLDGKMREIRSSGKVIGADRVAVMAALNITHDLLHRKERLDQESSSTRERVRELLDRVDRALANPADAGEA | soluble
7 | MSQTAAPLAQLNAMDTAQFVRTLGGIYEHSPWVAEQAAGQRPFASADALAAAMRRAVDGAGEGPQLKLVRAHPELAGKAAVRGELTAESTREQASAGLDQCSPEEFARLQALNARYNDKFGFPFILAVRGYDRHGIIDVFARRLENDRATELRASLEQIHRIAGFRLHDLISGKLAAALEHHHHHH | not soluble
8 | MSQTGEKGKFPDAAGYVGFANLPNQVHRKSVKKGFEFTLMVVGESGLGKSTLINSLFLTDLYPERYIPGAAEKIERTVQIEASTVEIEERGVKLRLTVVDTPGYGDAINSQDCFKTIIQYIDNQFERYLHDESGLNRRHIVDNRVHCCFYFISPFGHGLKPLDVEFMKAIHSKVNIVPVIAKADTLTLKERDRLKRRILDEISEHGIRIYQLPDADSDEDEEFKDFVPNRCIWSSLQFYQMHIIAITFIDIMFVFKKAAHVISTTIIMVKLNIKCQ | not soluble
9 | MSRAVTRSRLNSTTDQFMAEKINESDILERLNQTHTVRGFFITTVDVLTEAIDALMQRIFRKDNFAVKSVVEPLLHDTGPLGDLTVRLKLLFGLGVIPDEVFHDIEHLIKLRNQLNHDATEYQFTDPQILAPIKALNLVKKMGMLHLNVVEPDDDIDLSFYHLQLQRQQQVIKSGLSLAIIQICNALNK | not soluble
10 | MSRIEAVFFDCDGTLVDSEVICSRAYVTMFQEFGITLDPEEVFKRFKGVKLYEIIDIVSLEHGVTLAKTEAEHVYRAEVARLFDSAIEGAGALLSAITAPMCVVSNGPNNKMQHSMGKLNMLHYFPDKLFSGYDIQRWKPDPALMFHAAKAMNVNVENCILVDDSVAGAQSGIDAGMEVFYFCADPHNKPIVHPKVTTFTHLSQLPELWKARGWDITA | not soluble
11 | MSRIGLQQLNNSARNSPFGSEKATGTKQIPEPLKLTAQLKKYQPITPSPLASATTITPVLSPFDVFCDDDQEAKNVETQMFEYGTVSTQTIINVPHVQPKITEADLTSEKPTVNYLRVMADRLQMDLDDEMDRNQRLVAELGDLDEKMRKIDDDTEILLEVLADIDEEQQTDEEIGTAQL | not soluble
12 | MSRKRTENGSESGPATSHVPVDRFGFLKQEHANSPERFSKSKTTSSTDHDREERKVRKWRKMIGVGGSDWKHYVRRKPNVVRRRIRKGIPDCLRGLVWQLISGSRDLLLMNPGVYEQLVIYETSASELDIIRDISRTFPSHVFFQKRHGPGQRSLYNVLKAYSVYDRDVGYVQGMGFIAGLLLLYMSEEDAFWLLVALLKGAVHAPMEGLYHAGLPLVQQYLFQLESLVKELIPKLGEHFTQEMINPSMYASQWFITVFSYSFPFPLALRIWDVFLSEGVKIVFKVGLALLKYCQDELVSKVTV | not soluble
13 | MSRLEAWAYLSRVFEGPSRSLQKLLETESDVEKIAWGIKKREAWLGPILFETASRYSVSLEQEDLTTIKNLGGRLVTPDDDEWPREKFETAFGFAASGTSSLVRSYQSDAVAPHALWVRGAPLSTTVDRSVAIVGTRAMSHYGKSATSMLAAGIADHHWTIVSGGALGVDTVAHTEALQRQKPTVAVCARGLDAPYPRKNAELLRSIVETGCLVSEYAPGLTPHRHRFLTRNRLVAALSQGTVVVEAAWRSGALNTLSWASALGRVAMAVPGPVTNTGSLGCHERIRNKEAELVCSAEEILALVGTLGEFDPNGQYELQFAADPIQSLSRNEMRVFDSLDANPHTTDTVAAAAGIPIGLCVHILRDLEKKQLVMREGAHWHRC | not soluble
14 | MSRLEIYSPEGLRLDGRRWNELRRFESSINTHPHAADGSSYMEQGNNKIITLVKGPKEPRLKSQMDTSKALLNVSVNITKFSKFERSKSSHKNERRVLEIQTSLVRMFEKNVMLNIYPRTVIDIEIHVLEQDGGIMGSLINGITLALIDAGISMFDYISGISVGLYDTTPLLDTNSLEENAMSTVTLGVVGKSEKLSLLLVEDKIPLDRLENVLAIGIAGAHRVRDLMDEELRKHAQKRVSNASAR | not soluble
15 | MSRNLDSPVQTQMAVAVFKTPLTGASKMEGKQHHKHQHLQRQSSGRRVFVQTETGCVLGMELDRSDNVHTVKRRLQIALNFPTEESSLTYGDMVLTNDLSAVRNDSPLLLKRNFMHRSSSTPCLSPTGRDLQQKDRSGPIEILGHSDCFSIVKHMVKDIVKAMKMGVEPLPVHSGLGGAYYFRNKRGESVAIVKPTDEEPFAPNNPKGFVGKALGQPGLKSSVRVGETGFREVAAYLLDYGRFANVPPTALVKITHSVFNVNDGVKGNKPREKKLVSKIASFQKFVAHDFDASDHGTSSFPVTSVHRIGILDIRIFNTDRHGGNLLVKKLDGVGMFGQVELIPIDHGLCLPETLEDPYFEWIHWPQASLPFSDEEVDYIQSLDPVKDCDMLRRELPMIREACLRVLVLCTIFLKEASAYGLCLAEIGEMMTREFRPGEEEPSELEVVCIEAKRSVTERDVFSPRSDVVGEAEFQFDLDCDDLESVYSSKIQLTDDYFTKNPFSNGRSSLGKLEESIKEEEEDEEEEEDKTENTVPMIIMKDSFFSSAAFHDKAPSLSKLSTSMKNTHLSDTTRKNPKPLTRGKSENTSSGHKSANEQLPVSASFVKVADMKEDEWVLFLERFQELLGPAFAKRKTATLSKRQRLGTSCQF | not soluble
16 | MSRSEFPNSKCLICGSICTAKFHFGGLSCNACASFFRRTVSLNIRYLCKNSNNCITSPGQRTFCKACRYESCVDKAGMKRDFVQQRRSTNATPKYILNSTSGSSNREVVRGFITDSNSHLVTQTDHLRNIDNNEHCKDMKKYSDLLEISHMNLLRFYVKQVEPEKKELKNILQIKSINDLMITCAYDNGSAMESCVHCPGTGKLSQEDVRLLQKSFQFAHTWLDSTWQYSIATDIDESEVSGESENLSQFISHIKSTLGACLANLKLDVYEFAAFKSFCVWSIGAQGATESMKVVAQEHYEAVASALKMYYKTFTSMSDSEIATRIEEISFGRSSDVQMIYDETIKLYNKIGIPKSLFFEGN | not soluble
17 | MSRTQFEPAETYTAYTAYDEAYEAHEAYEAHEAYEAHETYERPAPYDLHSAPTLPYGGTYPSAPPPVHEPTVPALPRQSDGRAERRRRARGAGRADASLRRLVPRALVVAFLAGGTTAFVAKDKAVELTVDGSPRTLHTFADDVSELLAEEGVQVGAHDVIAPAPGTPLTSGEDVTVHHGRPVLLTLDGHRRQVWTTAGTVAGALRQLGVRTQGAYLSTGPSRRIGREGLALVVRTERVVTVMADGRTRTVRTNAATVGEVVEEAGITLRGEDTTSVPATGFPRDGQTVTVLRITGSQEVREDPIPFDERRAEDASLFRGTEVVQEAGRPGLRRTTYALRTVNGVRQKPRRLRTEVVREPSPRIVRVGTRPRPASVHGADHLNWQGLAACESGGRADAVDPSGTYGGLYQFDSATWHGLGGEGRPEDASAAEQTYRAQKLYVRSGADAWPHCGARLRELEHHHHHH | not soluble
18 | MSRYGKNLVHYIIVEHDDQRGQKPIDDDDEKNFYYHCSFTFETFFRATAFLLAPAVCAVREVPCRLTRTRYNATEYIEGYGWMISLQQGLGVAEFYRPWPLSVQLQRYTTPSRRSRFAVLTPQRKCHQNEANGQDLSLLILLSRIYPLCSNTSQTRRVAARKGKLS | not soluble
